{
  "source": "paper PMC8749432",
  "key": {"[1]": {"target": "HIV-1 BG505.W6M.B1 envelope glycoprotein I423A on SHIV-BG505 virions (HIV-1)"}, "[2]": {"target": "HIV-1 BG505.W6M.B1 envelope glycoprotein A204E on SHIV-BG505 virions (HIV-1)"}, "[3]": {"target": "HIV-1 BG505.W6M.B1 envelope glycoprotein L193A on SHIV-BG505 virions (HIV-1)"}},
  "data": [
    {"substance": "Soluble rhesus CD4 (Met1-Trp390) with C-terminal 6×His tag (from UniProt P16003 26-390) (domain or fragment)", "values": [
      {"measurement": "neutralisation of SHIV-BG505 infection of TZM-bl cells by soluble rhCD4; sensitivity against WT SHIV (fold more sensitive than WT SHIV)", "setting": "[1]", "result": 30},
      {"measurement": "neutralisation of SHIV-BG505 infection of TZM-bl cells by soluble rhCD4; sensitivity against WT SHIV (fold more sensitive than WT SHIV)", "setting": "[2]", "result": 1500},
      {"measurement": "neutralisation of SHIV-BG505 infection of TZM-bl cells by soluble rhCD4; sensitivity against WT SHIV (fold more sensitive than WT SHIV)", "setting": "[3]", "result": 3}
    ]}
  ]
}
